This passage reports increase of PLA signal on overexpression and PLA signal (percent) results from paper PMC5073337.

Assay [1] deals with SUMO2, full-length mouse, adenovirally overexpressed (mouse) (UniProt P61957). Briefly: proximity ligation; fixed NRVCM; primary antibodies against SUMO2/3 (Abcam, mouse) and CnA (Upstate, rabbit); cells infected with Ad LacZ, Ad S2 or Ad S2ΔGG with or without Ad ΔCnA; read-out: percentage of PLA-positive nuclei.
For assay [2], the target named is SUMO2ΔGG, diglycine-deficient mouse SUMO2 mutant, adenovirally overexpressed (mouse) (UniProt P61957). Described as above.

Take “calcineurin A (endogenous, rat) (from UniProt P63329 1-521) (natural protein)”: the increase of PLA signal on overexpression worked out at 14% in assay [1] and 17% in assay [2].

“constitutively active calcineurin A (from UniProt P63328 1-521) (enzyme)”: the PLA signal (percent) in assay [1] was determined as 64%; in assay [2], 54%.
